Assay results from the domain aggregation screens of Martell et al. (2025).

Test: soluble fraction after stress (log2 fold change); higher = more stays soluble; pooled small domains, quantitative proteomics
Conditions: stress: 50 degC
In short: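 Custom libraries of small protein domains were pooled and measured in a high-throughput format, with quantitative proteomics as the read-out. Each library was stressed at 50°C. The value is the log2 fold change in the amount of each protein that stays soluble after stress, used as a measure of aggregation propensity; higher values mean more of the protein stays soluble.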

Sequence | soluble fraction (log2)
HMSNIIIYPNPTNDGLIHIKGSKFPFNYALYNLSGKLIETGKKNQIQLNDRGVYLLKIQTEGQTYFKKII | 0.272
HMSNNILEISSNKKNMKIQENKNLVESYYSKTENLYSFKLVFKNKRDLDQFLKEVYEDDSTINYKTSS | -0.412
HMSNPPLPFLAKTKVSWTGEQDGDLGFLENEVVKVFHVVDELWWQGSLSRNGAEGIFPRDFVEVISAP | -1.8
HMSNSWSYSEFMKAVESGQVESVTISGQSIKGTSRGGQAFESVLPAFDDKLMDTLLVNDVEVIGEKP | -0.00195
HMSNTGDIIRKLREESGVTAKELAHRIGLSASQMSRLESGKRRINSEVLTRIARALEVAPSQLID | -0.136
HMSNTIFGINGPVVTVASKDFSMQEMVYVGNERLVGEVISIDDDLTTIQVYEVTTGLKPGEPVVGTGSAM | -0.531
HMSNVDYSQFKKDTVVEHTKFGRGIIIQTSGDGEDKIAAIAFKGLGVKRFSLAIAAASLKIIGKNDE | -0.0817
HMSNYFIEISKDSLARINDEIELDVLRETSDTIIISQEEKTNTISSFIKVLFERQIDILSIQNR | 0.000151
HMSNYYNILGVNKSSTQDEIKKAFRKKAVEHHPDKGGNEATFKKINEAYNTLSDNNKRHMYDMQQSG | 0.213
HMSPDALSNLPIGSEIKFTLWDGTEKRLVKHPAAYQFSRPFWMNLNEYTYVPVNRIPKNYEVIRL | -0.0581
HMSPEVEEISIDHLKAGMRILSDLRLPNGTLVAPKGSVVDAHFIKIVENYVISYFGNPFPDRIKVIM | -1.4
HMSPEWTPAEQDAIDKASEGEYGEALQRVLSGDYEPMDIPDALWGVQQVADKDTYSSIQKKIADIGN | 0.42
HMSPIPLPVERAIHKLGSDISLARRRRHISQASLAERMGASLSTVRRMEKGDVRVPIHFFARALHVFG | -0.00115
HMSPIQLKYNEYLIYIDEGKINTAEIHGNKITGKLKEGSEYVVTIYPELIASITEKLAENNVQTQLIQ | -0.0206
HMSPLPDRESLGAIEKLISLLGSSEWTVREKATRELGAFGYLARPVLQRELATSGDPEVSRRLERILSNL | -0.332
HMSPLTPEEAEVLRILGDHGDMTVDNIATEGKMSAAAVLRVLGVLSAYGLAVPSGPGRWGSRAA | -0.24
HMSPPPRPSHPEAAGLRHLAFEVDNIDDAVRHLDRLGVPHEPVRTDEYTGRRFLFFTDPDRLPLELYEK | -0.0818
HMSPQIDYFDDEELDVYRQIAPEAYTDEQIEVFRDILYTLRPEEVEEWLISLEKREINLPLILRQEAIELI | 0.369
HMSPRQVTAVRSGSPMPVLPGEDWRLYDASGALVARGSGAAPIPKSTGLLRLNSEGLDGLADRWIWVL | -0.255
HMSPSRRENLTAAAKEYFVNTQIRHKTFGNGVIIKRSGNIAAIRFDNGTIKQIDLIAALQAKVLSIL | 0.168
HMSPSTNKTFSFSKENISIGQTVFIKKLNQNATVLTLPNKSNQLQVQFGVITMNVKLEDLALPTN | -0.171
HMSPTSSRAAQARIRKMIESESPLKPISDSQLAARLGEEGISIARRTVAKYREQMNILPASQRRGV | -0.146
HMSPVPRIEIELTSSKEDGSWTWRAVGAREPRGSLDGALLAKPAAVGDVLRVETDQFLDGMTVTAILPPRD | -0.325

Sequence | soluble fraction (log2)
HMSQAVEISSVKTQIDGKSYYLHTIKQGQTLYGISKAYGVSVEELTTVNPETSKGLKVGQIIKVPDTKT | 0.0299
HMSQDLVVLGDSMLNNALKAFHIDPNAIKKKYWDKLILDYHLKSKEEVLTEIALGKKINVMVAHQLTSIMD | -0.0721
HMSQEILSNQSIKDMIELGFEEQTIIDKIQTSTSDFDTTIEELKALKQLGASPTILSAMIKSIKK | 0.285
HMSQLDITEARIVVSGGLGMQGPENFKLLEELAKVLGGAVGASRPVVDNGWREYSNQVGQTGKIVAPELYV | -0.0903
HMSQLETEEAKRIVLKDLLRLYNNYNIIELEEDEFDRFITYLNMPYDFLQKTSDYDLAVSIKRMYASY | -2.3
HMSQNISSTKLIPENIKIGMSVFVIPLQQKGIVQSLPNRSKEVLVQIGNAKINVKINNLKLIED | 0.295
HMSQNTHTIPSREDILGIFRSVNAPLDPQSLGKTLQVHADSMDVLVRRLKAMERDGQLKSDASGVFSLAD | 0.119
HMSQNVQDVFLNHVRKSKNPVTVFLVNGVKLQGIITWFDNFSVLLRREGHTQLVYKHAISTVMPSGPIQLF | 0.0729
HMSQPALSYAFAKAQGVIVTALGDVAEVARRKGSQPQALAEVRRIAGRPLALREVDDAAFDRLLQDHYARS | -0.243
HMSQQMSYSDFVKAVSARQIREAQIQGDKIYATDSTGNRLTIIRLDNDQRLVDDMINNDVNIIGLEE | 0.156
HMSQSDLASAIGARVTIRLREASGGFRDIVGVLQRFGSGYGELINSKGEALTFSESEIAIWREVKA | -0.358
HMSQTELIIVEEEMDGERLDAFLAEQVEQLSRSAVKNLINEGQVLVNGAKQKASYHVREGDEISIEIPEPQ | 0.0254
HMSQTPDLQQERANLGDNADARIEAVDLWANKFFPEEHADAILQIGQTAKGIEALEFIMSKV | 0.0193
HMSQVLVRINQDLNIRSGPGAQYDIIAVYRSGAIASVIGTYNNWYKVNFELDSKSYTGWINGTFTSR | -1.93
HMSQYELEDVEKQRLKFKNGDEKALWLLSDIYKDNSQSYEVRLAALRALSESRHPLIIFDIQSSVK | -0.208
HMSRAAQRLFMSQPPLSRHIRQLEDRLGVTLFVRHTRGLTLTEDGQRVLEMVRPLLDLQDKTYAALSQLT | 0.382
HMSREMIKSELESISGLGKSGIEKLYTHFINIENIKSASLENIRNIPGISYKVADNIYKHFH | -0.195
HMSRLGINTTIEDIKMVGKIIMPLLKQGQSVYQILASHPEIPYSEKTLYSYIEDNIFKDAGIDISVFDL | -0.931
HMSRLLERARDLMAKPGAWLSAEGGAYALRLSPDRRSRISLTLTETEFRALIDQPGLRVRPGGGWSGRA | -3
HMSRMGDSIKSLRSRNNMSQDALAEKLNVTRQAISNWENSKTQPDADTLKNLGIIFNVTVDEIINNDF | 0.0528
HMSRQREWIYDYIQSHPDRHMSVEEIYEGLKAENREVSVATVYRNLKILQDENRIASLMLESGKQVFDK | -0.371
HMSRREEALIALAQRVARQVARTKQPVTLEPMPANERRVIHVALRDNPDVETRSSGEGDQRRVTVYPRQ | 0.05
HMSRRIEIELTSSRPDGSWTWRAAGAREPKGVLDGTLLSQGSKPGDVVKAEAEFDIDGITIVSITQ | -0.18

Sequence | soluble fraction (log2)
HMSRSKLNRLDKIKKMLIAQTGISIKEFSASLNVSEITIRRDLNLLEEQGFIRLVNGVAIYRM | -1.55
HMSRSLEIDVLVKALLEQDRRKFMLVTDGTADVTVRYNNALPSLFREGQGVVAEGLMDNGKFIATNVLAK | -0.631
HMSRSLLAALEKLRESHTGSLPASVLSSAQRRSLESFAQTTKSVQMRPSGRGVVFAIINPEVVDKHWRELS | -0.497
HMSRSSQMVNFIRLLSQEKKVSVNSIFSSSVQLSDGIIVKINDFYYRVNLSLDQKTYSLVEVS | -0.486
HMSRVKQERLNRFVEAFEAYFRSVHPGEIDVEYLKSDEFGDIFESILHRVMHTASEEKMHRFKKILLNEM | -2.13
HMSSADIPFSRFIDDVEAQRVEKVTIDGVNVTGRYRSDGAAFKTIIPSQYDGLVPILRQNKVDITVKDA | 0.123
HMSSAMDMISRDVRNADSISISTTTYSKKIDLYNFDRNGDIEELHSYSAKNDLGILYNDEPI | -0.276
HMSSANIKLDPLERQATQQIINNIKRKYPNATIENLQEVANDAIATMRQPEFSNYTVDKFVSYFLSM | -0.333
HMSSARKVTVRGVRELPGIFMEKAEILDDGVRFFYRGEMEKLIGALQGLPIRDLTITEPDLEEVFLHFY | -1.09
HMSSASETQYELALQAMRDGDNDAALRSLSTALASGFSDWQRIDEEPLLAALANDVRFQVLRSRWK | 0.0414
HMSSDLVDYLVKYVAIVDNQEIEIADSKIGTAELGTTVSEVAKTVGNYYPKATVLSVKITGRNQEIVFEY | -2.83
HMSSEPYISLPRGAAHDAYPLSTKAVAAQLGMSEVWLANLRSKGKGPRYVRVGTRVFYSPEDVAQWRRAT | -0.889
HMSSESIIIKKLIEEFIHNENKYSPLSDEKLSYLLKNKGFSVARRTVAKYRDELGILSTRERKIKI | -0.745
HMSSEYARFFSGNYYEVLGVAKNASYDEIKAAWKKLVKEYHPDLHPQRQEEFTKIIQKINEAYEYFKKMH | -0.0398
HMSSFFLIDVSQVRIGMYIQLDVGWMRHPFPVNSFRITNQEQLDTLRSLNLAQVRWSPAKSDL | -3.77
HMSSFIEAIKQSGTDSLDVIMKNGRVYRYVGIDADRLGYLLEPHQQKLSLEESIGRFYIDYIKGIYEAIE | -1.57
HMSSGNLESLLNKLHNEDYFVRLDAVKALGALGDPGAIDYLIEMLSENGIMRGWVANSLAALGEAQWKKII | -1.94
HMSSHSAEAVRHRIKSMIDHEARDGDVLSDDRIVELLNQAGIDIARRTVAKYREALRIPSSVERKRRLKA | 0.0377
HMSSKRDQFIVLGQEILEKMFKNEGLEFSEKGLLAVMPNFEAESINDIYAKVGEGLISGWDVMKAVYPAY | -0.133
HMSSKSLAALSPQEYRLLPLVAEGKTNKEIASALALSDKTVKNYLANIFSKLGITRRTQAATLYARAL | -0.167
HMSSKYLKIYNDIVGKIDSGIFEANTKLPSESQLMDEYNVSRYTVRKSLNLLEQNGYIEKSKGKGSFVLDM | -0.717
HMSSLQFVTLTLMEGHAWVGREIQELLMPPQMRIALIRRGDSQVIPKGSTILESADELILSAIEYQG | -4.14
